Laboratory results reported in paper PMC7870846, “Incorporation of sensing modalities into de novo designed fluorescence-activating proteins” (Nature Communications, 2021).
One block for each molecule: values may come before it.

Legend:
BCL2 = target: BCL2; design: method as in PMID 27805565; details: read-out: dissociation constant (Kd); cited from earlier work
[1] = Photophysical characterization: absorbance, excitation/emission spectra, extinction coefficients, quantum yields; type: physicochemical
Protocol: Protein preparation: mFAP2a, mFAP2b, and mFAP10 were produced by large-scale protein purification and SEC purification, and dialyzed overnight into DPBS that was adjusted to pH 7.40 using NaOH.
Chromophore preparation: DFHBI (Lucerna) and DFHBI-1T (Lucerna) were dissolved to 20.0 mM in 100% DMSO, and diluted in DPBS (pH 7.40) to measure absorbances on a Jasco V-750 spectrophotometer at peak absorbance wavelengths (417 nm for DFHBI and 422 nm for DFHBI-1T). Following background subtraction of identical buffer without chromophore, Beer’s Law was used to calculate the molar chromophore concentrations of the stock solutions using previously reported extinction coefficients.
Preparation of protein–chromophore complexes: For quantum yield measurements, 1.00 μM, 836 nM, or 919 nM chromophore solutions in DPBS (pH 7.40) at 4.00 mL final volumes were prepared for the following eight conditions: DFHBI only, DFHBI-1T only, 43.5 µM 6xHis-mFAP10 with DFHBI, 43.5 µM 6xHis-mFAP10 with DFHBI-1T, 134 μM 6xHis-mFAP2a with DFHBI, 134 μM 6xHis-mFAP2a with DFHBI-1T, 206 μM 6xHis-mFAP2b with DFHBI, and 206 μM 6xHis-mFAP2b with DFHBI-1T.
Extinction coefficients: Absorbance spectra of protein–chromophore complexes were first measured with a Thermo Scientific BioMate 3S UV–Vis Spectrophotometer (1 nm interval, 800 nm min^−1). The extinction coefficients were then calculated using Beer’s Law:12 A=ε⋅b⋅c, where A is peak absorbance, ε is extinction coefficient, b is path length (1 cm), and c is concentration (1.00 μM, 836 nM, or 919 nM).
Relative quantum yield: A Perkin-Elmer LS-B Luminescence Spectrophotometer (10 nm bandwidth, 1 nm interval, 100 nm min^−1) was used. The fluorescence emission spectra of the protein–chromophore complexes (in DPBS, pH 7.40) and reference dye Acridine Yellow G (in methanol) were first obtained, and the quantum yield was then calculated using the equation[53]:13 ϕc=ϕr⋅1−10^−Ar(λex)/1−10^−Ac(λex)⋅∫Fc(λ)⋅dλ/∫Fr(λ)⋅dλ⋅nc2/nr2, where ϕ is quantum yield, A(λex) is absorbance at the excitation wavelength λex ( λex = 440 nm), F is fluorescence emission, n is refractive index of the solution (1.3350 for DPBS at pH 7.40 and 1.3284 for methanol), and the subscripts “c” and “r” refer to the protein–chromophore complex measured and the reference dye, respectively. […]
Absolute quantum yield: An integrating sphere instrument (Hamamatsu C9920-12) (6 nm excitation bandwidth, 1 nm interval) and a high-sensitivity photonic multi-channel analyzer (Hamamatsu C10027-01) were used to measure a light emission spectrum. Absolute quantum yields were measured for solutions of protein–chromophore complexes in DPBS (pH 7.40) in which ≥95% of the total chromophore was occupying the protein-binding pocket (Table 1). […]

[2] = design: method as in PMID 30209393; details: read-out: Kd for the phenolate form of DFHBI; cited from earlier work
[3] = with DFHBI; cited from earlier work
[4] = In vitro chromophore titration with DFHBI (fluorescence, single-binding site isotherm fit)
Protocol: Fluorescence endpoints were measured on a Synergy Neo2 hybrid multi-mode reader (BioTek) in flat bottom, black polystyrene, non-binding surface 96-well microplates (Corning 3650). In measuring chromophore-binding affinities (Fig. 1d, e), mFAP2, mFAP2a, and mFAP2b, and mFAP10 were produced by large-scale protein purification and SEC purification. Proteins were aliquoted in eight technical replicates in 200 μL final volumes to 20.0 nM final concentration in ten serial dilutions ( 10 dilution factor) of DFHBI starting from 31.6 μM DFHBI or 31.6 μM DFHBI-1T final concentrations, including an eleventh condition without chromophore. Fluorescence was excited at λex = 468 nm and fluorescence emission measured at λem = 530 nm. Background fluorescence endpoints of wells with identical chromophore concentrations but purified protein replaced with an identical volume of high-salt Tev cleavage buffer were measured, and fluorescence endpoints subtracted from those measured with protein. Background-subtracted data were averaged and the means normalized from 0 to 1 and fit to a single-binding site isotherm function using non-linear least squares fitting to obtain a fitted Kd value (Table 1), and the fit scaled to the maximum mean value (Fig. 1d, e).

[5] = pH-dependent fluorescence assays (pH titration); type: biochemical; details: from pH 8.38 to pH 3.63
Protocol: In measuring pH-dependent fluorescence (Fig. 3d–i), Na2HPO4-citrate buffer supplemented with 150 mM NaCl at unique pH values were produced via mixing various volumes of 100 mM citric acid (Sigma Aldrich), 200 mM Na2HPO4 (Sigma Aldrich), and 2.00 M NaCl, and final pHs quantified via an Accumet AB15 Basic pH meter (Fisher Scientific). pHRed and pHluorin2 were produced via large-scale protein purification, 6xHis-tag removal and size-exclusion chromatography (SEC) purification, and mFAP_pH and mFAP2b were produced via large-scale protein purification and SEC purification. pH-dependent fluorescence was measured at […] final protein concentration for mFAP2b, mFAP_pH and pHRed, and 170 nM final concentration for pHluorin2, at each pH in technical triplicate in 200 μL final volumes per well. […] In measuring fluorescence excitation spectra at each pH (Fig. 3d), excitation wavelengths were set to the range λex = 300–530 nm and fluorescence emission measured at λem = 562 nm. In measuring pH-dependent fluorescence excitation spectra at pH 3.76 and pH 7.34 (Fig. 3f, g), excitation spectra were measured using excitation wavelengths in the range λex = 300–540 nm and emission wavelength λem = 592 nm. […]

B1: aBCL2: designed binding partner of BCL2 (protein)
chain: GADPKKVLDKAKDEAENRVRELKQRLEELYKEARKLDLTQEMRQELVDKARAASLQANGDIFYAILRALAEAEKLKKAGLVNSQQLDELKRRLEELAEEARRKAEKLRDEFRLKLEYG
Kd (BCL2): 0.8 ± 0.5 nM

higher affinity for DFHBI than DFHBI-1T [4]: ~ 30 fold
B2: mFAP2: previously reported mini-fluorescence-activating protein, initial design (protein)
chain: SRAAQLLPGTWQVTMTNEDGQTSQGQMHFQPRSPYTMDVVAQGTISDGRPISGYGKVTVKTPDTLDVDITYPSLGNIKAQGQITMDSPTQFKFDATTKGAGNFTGRLTGTLQRQE
brighter fluorescence with DFHBI-1T than DFHBI [1]: ~ 2.7 fold
Kd [2]: ~180 nM
absolute fluorescence quantum yield (ϕc) [3]: 2.1%

B3: mFAP_pH: particularly pH-responsive variant (protein)
chain: SRAAQLLPGTWQVTMTNEDGQTSQGQMHFQPRSPYTMDIVAQGTISDGRPIVGYGKATVKTPDTLDIDITYPSLGNIKAQGQITMDSPTQFKFDATTKGENDFHGRLTGTLQRQE
fold-change in ratiometric fluorescence (Fratio) [5]: ~ 250 fold

B4: aBFL1: designed binding partner of BFL1 (protein)
chain: GADPKKVLDKAKDQAENRVRELKQKLEELYKEARKLDLTQEKRKKLEVATLGAVLAAHGDILNAIMQAKEEADKLKKAGLVNSQQLDELKRRLEELKEEALRKASDYGNEFHLKRRYG
Kd (BCL2): 320 ± 40 nM
